Measured values from PMC4027171.

Target: human EME2 (His-EME2) (human)
Test: co-purification of co-expressed subunits

human EME2 (His-EME2) (human), sequence (A4GXA9 whole entry): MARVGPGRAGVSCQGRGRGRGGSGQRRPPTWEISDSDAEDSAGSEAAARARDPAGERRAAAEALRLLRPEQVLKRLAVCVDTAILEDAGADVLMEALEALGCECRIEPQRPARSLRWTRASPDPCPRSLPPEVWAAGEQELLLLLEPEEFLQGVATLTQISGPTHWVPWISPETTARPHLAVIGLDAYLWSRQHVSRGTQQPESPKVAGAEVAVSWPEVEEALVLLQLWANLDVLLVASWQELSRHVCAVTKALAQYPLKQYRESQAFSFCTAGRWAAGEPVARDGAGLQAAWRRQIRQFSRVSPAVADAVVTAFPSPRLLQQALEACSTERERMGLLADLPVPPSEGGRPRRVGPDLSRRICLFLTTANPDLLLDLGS

- stoichiometry N: 1
B1: human MUS81 (enzyme)
chain: MAAPVRLGRKRPLPACPNPLFVRWLTEWRDEATRSRRRTRFVFQKALRSLRRYPLPLRSGKEAKILQHFGDGLCRMLDERLQRHRTSGGDHAPDSPSGENSPAPQGRLAEVQDSSMPVPAQPKAGGSGSYWPARHSGARVILLVLYREHLNPNGHHFLTKEELLQRCAQKSPRVAPGSARPWPALRSLLHRNLVLRTHQPARYSLTPEGLELAQKLAESEGLSLLNVGIGPKEPPGEETAVPGAASAELASEAGVQQQPLELRPGEYRVLLCVDIGETRGGGHRPELLRELQRLHVTHTVRKLHVGDFVWVAQETNPRDPANPGELVLDHIVERKRLDDLCSSIIDGRFREQKFRLKRCGLERRVYLVEEHGSVHNLSLPESTLLQAVTNTQVIDGFFVKRTADIKESAAYLALLTRGLQRLYQGHTLRSRPWGTPGNPESGAMTSPNPLCSLLTFSDFNAGAIKNKAQSVREVFARQLMQVRGVSGEKAAALVDRYSTPASLLAAYDACATPKEQETLLSTIKCGRLQRNLGPALSRTLSQLYCSYGPLT
